# Measurements published in patent US20110243927A1.
# Target: β5 integrin (human, ITGB5) (human)
# Assay: cell-based or functional assay
substance,measurement,value
anti-β5 integrin subunit monoclonal antibody KN52 (eBiosciences),"% Inhibition of cell growth, SKBr3 cells, SRB assay, 5 days, antibody alone at 0.08 µg/ml (trastuzumab 0)",30%
same,"% Inhibition of cell growth, SKBr3 cells, SRB assay, 5 days, antibody alone at 0.4 µg/ml (trastuzumab 0)",43.7%
same,"% Inhibition of cell growth, SKBr3 cells, SRB assay, 5 days, antibody alone at 2 µg/ml (trastuzumab 0)",52.6%
same,"% Inhibition of cell growth, SKBr3 cells, SRB assay, 5 days, antibody alone at 10 µg/ml (trastuzumab 0)",71.5%
same,"% Inhibition of cell growth, SKBr3 cells, SRB assay, 5 days, antibody alone at 50 µg/ml (trastuzumab 0)",76.2%
same,"Inhibition of cell proliferation, 184-A1 (normal breast cell line), 10 µg/ml, 4 days, vs isotype control",0%
same,"Inhibition of cell proliferation, 231 (breast), 10 µg/ml, 4 days, vs isotype control",23%
same,"Inhibition of cell proliferation, 435 (breast), 10 µg/ml, 4 days, vs isotype control",33.7%
same,"Inhibition of cell proliferation, 453 (breast), 10 µg/ml, 4 days, vs isotype control",24.9%
same,"Inhibition of cell proliferation, 468 (breast), 10 µg/ml, 4 days, vs isotype control",44.3%
same,"Inhibition of cell proliferation, A172 (brain), 10 µg/ml, 4 days, vs isotype control",90%
same,"Inhibition of cell proliferation, A549 (lung), 10 µg/ml, 4 days, vs isotype control",60 to 80%
same,"Inhibition of cell proliferation, BT-474 (breast), 10 µg/ml, 4 days, vs isotype control",0%
same,"Inhibition of cell proliferation, CaoV3 (ovary), 10 µg/ml, 4 days, vs isotype control",45.9%
same,"Inhibition of cell proliferation, Colo205 (colon), 10 µg/ml, 4 days, vs isotype control",27.2%
same,"Inhibition of cell proliferation, Du145 (prostate), 10 µg/ml, 4 days, vs isotype control",17.1%
same,"Inhibition of cell proliferation, Du-4475 (breast), 10 µg/ml, 4 days, vs isotype control",2.13%
same,"Inhibition of cell proliferation, H358 (lung), 10 µg/ml, 4 days, vs isotype control",30.1%
same,"Inhibition of cell proliferation, H460 (lung), 10 µg/ml, 4 days, vs isotype control",39.7%
same,"Inhibition of cell proliferation, HCC-1419 (breast), 10 µg/ml, 4 days, vs isotype control",20.9%
same,"Inhibition of cell proliferation, HCC-1954 (breast), 10 µg/ml, 4 days, vs isotype control",39.3%
same,"Inhibition of cell proliferation, HCT8 (colon), 10 µg/ml, 4 days, vs isotype control",33%
same,"Inhibition of cell proliferation, HCT15 (colon), 10 µg/ml, 4 days, vs isotype control",58.7%
same,"Inhibition of cell proliferation, HMEC C (normal human mammary epithelial cells), 10 µg/ml, 4 days, vs isotype control",0%
same,"Inhibition of cell proliferation, MCF7 (breast), 10 µg/ml, 4 days, vs isotype control",49.1%
same,"Inhibition of cell proliferation, PC3 (prostate), 10 µg/ml, 4 days, vs isotype control",11.2%
same,"Inhibition of cell proliferation, SK-N-SH (brain), 10 µg/ml, 4 days, vs isotype control",40%
same,"Inhibition of cell proliferation, SKBr3 (breast), 10 µg/ml, 4 days, vs isotype control",26.2%
same,"Inhibition of cell proliferation, SW480 (colon), 10 µg/ml, 4 days, vs isotype control",30.2%
same,"Inhibition of cell proliferation, SW620 (colon), 10 µg/ml, 4 days, vs isotype control",48.5%
same,"Inhibition of cell proliferation, SW626 (ovary), 10 µg/ml, 4 days, vs isotype control",29.7%
same,"Inhibition of cell proliferation, SW1783 (listed under colon), 10 µg/ml, 4 days, vs isotype control",26.6%
same,"Inhibition of cell proliferation, Skov3 (ovary), 10 µg/ml, 4 days, vs isotype control",15.1%
same,"Inhibition of cell proliferation, T47D (breast), 10 µg/ml, 4 days, vs isotype control",30.9%
